Measurements published in patent US20090130104A1 (University of Pennsylvania, published 2009).

Target: low molecular weight single-chain urokinase plasminogen activator (lmw-scuPA), non-targeted (human, UniProt P00749 164-431)
Experiment: ELISA on plates coated with soluble mouse PECAM
Procedure: The size and homogeneity of purified scFv/uPA-T was analyzed using 12% SDS-PAGE with or without addition of thrombin (150 nM). Conversion to its two-chain derivative was determined in the presence of 50 mM dithiothreitol (DTT). cDNA encoding the extracellular domain of mouse PECAM (amino acids Glu¹⁸-Lys⁵⁹⁰) was obtained by the reverse transcription polymerized chain reaction (RT-PCR) using mouse lung tissue total RNA. A FLAG affinity tag was fused to the N-terminus and subcloned into the BglII and NotI sites in the pMT/Bip vector. Stable cell lines were generated. Soluble mouse PECAM was purified from secreted supernatant using M2 anti-FLAG affinity chromatography. Specific binding of scFv/uPA-T to soluble PECAM was measured by ELISA. Each well within a 96-well plate was coated with 5 μg/ml soluble mouse PECAM protein overnight, the unbound sites were blocked with PBS containing 5% bovine serum albumin (BSA) at 37° C. for 1 h and various dilutions of scFv/uPA-T or WT lmw-scuPA were added for 1 hour. Unbound protein was removed by washing with PBS and 1 μg/ml anti-uPA monoclonal antibody in PBS containing 1% BSA was added. The wells were washed, horseradish peroxidase conjugated anti-mouse IgG was added, the wells washed again, TMB substrate was added and the optical density at 450 nm (OD450) was measured. […]

B1: soluble mouse PECAM, extracellular domain (Glu18-Lys590) with N-terminal FLAG tag (receptor, UniProt Q08481 18-590, looked up, not shown: small tags and cut ends)
chain: EENSFTINSIHMESLPSWEVMNGQQLTLECLVDISTTSKSRSQHRVLFYKDDAMVYNVTSREHTESYVIPQARVFHSGKYKCTVMLNNKEKTTIEYEVKVHGVSKPKVTLDKKEVTEGGVVTVNCSLQEEKPPIFFKIEKLEVGTKFVKRRIDKTSNENFVLMEFPIEAQDHVLVFRCQAGILSGFKLQESEPIRSEYVTVQESFSTPKFEIKPPGMIIEGDQLHIRCIVQVTHLVQEFTEIIIQKDKAIVATSKQSSEAVYSVMAMVEYSGHYTCKVESNRISKASSIMVNITELFPKPKLEFSSSRLDQGELLDLSCSVSGTPVANFTIQKEETVLSQYQNFSKIAEESDSGEYSCTAGIGKVVKRSGLVPIQVCEMLSKPSIFHDAKSEIIKGHAIGISCQSENGTAPITYHLMKAKSDFQTLEVTSNDPATFTDKPTRDMEYQCRADNCHSHPAVFSEILRVRVIAPVDEVVISILSSNEVQSGSEMVLRCSVKEGTSPITFQFYKEKEDRPFHQAVVNDTQAFWHNKQASKKQEGQYYCTASNRASSMRTSPRSSTLAVRVFLAPWKK
notes: range 18-590; Secreted from Drosophila cells (pMT/Bip vector), purified on M2 anti-FLAG; coated on 96-well plates at 5 ug/ml; also called immobilized extracellular domain of mouse PECAM; immobilized mouse PECAM
B1: no binding.
